Assay results: patent US20200223906A1 (Adimab, published 2020)

What was measured:
[1] = molecular target: RSV F protein of subtype A (strain A2) on recombinant mKate-RSV virus (Respiratory syncytial virus subtype A …, UniProt P03420 26-574); experiment: cell-based or functional assay
[2] = molecular target: RSV F protein of subtype B (18537) on recombinant mKate-RSV virus (Respiratory syncytial virus subtype B …, UniProt P13843 26-574); experiment: cell-based or functional assay
[3] = molecular target: T1, RSV F subtype B, furin-cleaved ectodomain stabilized in the prefusion conformation (DS-Cav1) (Respiratory syncytial virus subtype B); experiment: BLI, IgG on AHQ sensor, 100 nM antigen
T1 construct: extracellular domain; Trimeric soluble antigen; also called Prefusion subtype B

[4] = molecular target: T2, RSV F subtype A, furin-cleaved ectodomain stabilized in the prefusion conformation (DS-Cav1) (Respiratory syncytial virus subtype A, UniProt P03420 26-524); experiment: BLI, IgG on AHQ sensor, 100 nM antigen
T2 construct: extracellular domain; Trimeric soluble antigen; also called Prefusion subtype A

Row | Binder | Neut IC50 (µg/ml) subtype A [1] [µg/mL] | Neut IC50 (µg/ml) subtype B [2] [µg/mL] | Kd [3] [nM] | Kd [4] [nM]
1 | ADI-18902 (antibody, V domains shown, full-length IgG from yeast) VH: QVQLQESGPGLVKPSETLSLTCTVSGGSISGYYWSWIRQPPGRGLEWIGFIYYSGSTSYDSSLKSRVTISVDTSKNQFSLNLSSVTAADTAVYYCARSTWDYGDHFPFDYWGQGTLVTVSS VL: SYELTQPPSVSVAPGKTARITCGGNNIGIKDVHWYQLRPGQAPVLVISYDSDRPSGIPERFSGSNSGNTATLTISRVEAGDEADYFCQVWDSSPDHPYVFGTGTKLTVL | 0.024 | 0.15 | 0.101 | 0.107
2 | ADI-18908 (antibody, V domains shown, full-length IgG from yeast) VH: QVQLVESGGGLVKPGGSLRLSCAASGFTFSSFGMHWVRQAPGQGLEWVASITGGSSYINYADSVKGRFTISRDNAKKSLSLQMKNLRAEDTAEYYCVRGVLPGGTGGGWFDSWGQGTLVTVSS VL: QSVLTQPPSMSGAPGQRVTISCTGTSSNIGAGYDVQWYQQFPGTAPKLLISGNNNRPSGVPDRFSGSKSGASASLAITGLQAEDEADYYCQSYDYSLNWVFGGGTKLTVL | 0.018 | 0.095 | 0.352 | 0.302
3 | ADI-18889 (antibody, V domains shown, full-length IgG from yeast; also called Antibody Number 244; Ab # 244) VH: QVQLQQWGAGLWKPSQTLSLTCAVHGGSLSGYSWSWIRQSPGRGLEWIGEVNRRGTTNYNPSLKGRVSISWDTSKNQVSLSLRSVTAADTATYYCAGTNVGFVNTHNDYYFGMDVWGQGTTVTVSS VL: DIVMTQSPSSLSASVGDRVTITCRASQSISNYVNWYQKKTGQVPKLLIYGASNLESGVPSRFSGGGSGTDFTLTISSLQPEDFATYYCQQSYSVPLTFGGGTKVEIK | 0.04 | 0.019 | 0.587 | 0.554
4 | ADI-18877 (antibody, V domains shown, full-length IgG from yeast; also called Antibody Number 234; Ab # 234) VH: QVQLVQSGTEVKKPGASVKVSCKAAGYTFSNYGVSWVRQAPGQGLEWMGWISAYNGNTKFAQKVQGRLTMTTDTSTSTAYMELRNLRSDDTAVYYCARESGATAAAMFDYWGQGTLVTVSS VL: ETTLTQSPLSLPVTLGQPASISCRSSQSLEYSDGNIYLSWFQQRPGQSPRRLIYKVSHRDSGVPDRFSGSGSGTDFTLKIARVEAEDVAVYYCMQAIHWPRTFGQGTKVDIK | 0.41 | 0.13 | 0.383 | 0.303
5 | ADI-18898 (antibody, V domains shown, full-length IgG from yeast) VH: QVQLVQSGTEVKKPGASVKVSCKAAGYTFSNYGVSWVRQAPGQGLEWMGWISAYNGNTKFAQKVQGRLTMTTDTSTSTAYMELRNLRSDDTAVYYCARESGATAAAMFDYWGQGTLVTVSS VL: EIVLTQSPLSLPVTLGQPASISCRSSQSLEYSDGNIYLSWFQQRPGQSPRRLIYKVSHRDSGVPDRFSGSGSGTDFTLKIARVEAEDVAVYYCMQAIHWPRTFGQGTKVEIK | 0.03 | 0.097 | 0.325 | 0.305
6 | ADI-18900 (antibody, V domains shown, full-length IgG from yeast) VH: EVQLLESGGALVEPGGSLRLSCAASGFSFNTYSMNWVRQGPGKGLEWVATISTSTAGSYYADSVRGRFTISRDNSKNTLYLQMNSLRVEDTAVYYCARDQEVELIDDAFDFWGRGTMVTVSS VL: DIVMTQTHSSLSASVGDRVTITCRASQSISIWVAWYQQKPGKAPNLLIYKASSLQSGVPSRFSGSGSGTEFTLTISSLQPDDSATYYCQQYYTYYSFGQGTKLEIK | 0.035 | 0.059 | 0.331 | 1.19
7 | ADI-18960 (antibody, V domains shown, full-length IgG from yeast; also called Antibody Number 311; Ab # 311) VH: QVQLQESGPGLVKPSETLSLTCSVSGGSITNVNYYWGWIRQPPGKGLEWIGSIYYNGNTYYNPSLQSRVTMSVDTSKNHFSLRLTSVTAADTAVYFCAREGPNWELLNAFDIWGQGTTVTVSS VL: DIQVTQPPSVSVAPGQTARITCGGNNIGSKNVHWYQQKPGRAPVLVVYEDTHRPSGIPERFSGSNSGNTATLTISRVEAGDEADYYCQVWDTSSDHVVFGGGTKLTVL | 0.034 | 0.107 | 0.183 | 0.178
8 | ADI-18966 (antibody, V domains shown, full-length IgG from yeast) VH: QVQLVQSGGGVVQPGRSLRLSCAASGFTFRNYGMHWVRQAPGKGLEWVAAASYDGSSKYFADAVKGRFSISRDNTKNTLSLQMTSLRAEDTAVYYCARDPGVGSYYNVVGMDVWGQGTTVTVSS VL: DIRLTQSPLSLPVTLGQPASISCRSSQSLVYSDGNTYLNWFQQRPGQSPRRLIYRVSHRDSGVPDRFSGSESGTDFTLKISRVEAEDVGVYYCMQGTHWPPTFGQGTKVEIK | 0.044 | 0.13 | 0.562 | 0.578
9 | ADI-18892 (antibody, V domains shown, full-length IgG from yeast) VH: QVQLVQSGAEVKEPGASVRVSCKASGYTFTSYGISWVRQAPGQGLEWMGWISAYNGNTNYAQKFQGRVTVTTDTSTSAAYMELRSLRSDDTAIYYCARDSFSLTGAGFPDYWGQGTLVTVSS VL: EIVMTQSPLSLPVTLGQPASISCRSSQSLVYSDGNTYLNWFQQRPGQSPRRLIYKVSNRDSGVPDRFSGSGSDTDFTLKISRVEAEDVGVYYCMQATQWPRTFGQGTKVEIK | 0.018 | 0.117 | 0.253 | 0.217
10 | ADI-18975 (antibody, V domains shown, full-length IgG from yeast; also called Antibody Number 323; Ab # 323) VH: QVQLVQSGAEVKKPGASVKVSCKASGYTFVHYGISWVRQAPGQGLEWMGWISAYNGNTNSALKFQDRVTMTTDPSTSTAYMELRSLRSDDTAIYYCARDSGCCSGSTSDVWGKGTTVTVSS VL: DIVMTQSPLSSPVTLGQPASISCRSSQSLVHSDGNTYLSWLHQRPGQPPRLLIYKISHRFSGVPDRFTGSGAGTDFTLKISRVEAEDVGVYYCMQATEFPPMYTFGQGTKVEIK | 0.037 | 0.174 | 0.298 | 0.267
11 | ADI-18969 (antibody, V domains shown, full-length IgG from yeast; also called Antibody Number 317; Ab # 317) VH: QVQLVQSGPEVKKPGASVTVSCKASGYTFSHYGISWVRQAPGQGLEWMGWISAYHGQTNYAQNFQGRVTMTTDTSSNTAYMEVRSLRSDDTAVYFCARDVFSKTAARIFDYWGQGTLVTVSS VL: EIVLTQSPLSLPVTLGQPASISCRSSQSLEYSDGNTYLSWFQQRPGQSPRRLIYKVSNRDSGVPDRFSGSQSGTDFTLKISRVEAEDVGVYYCMQATDWPVTFGQGTKLEIK | 0.035 | 0.187 | 0.297 | 0.303
12 | ADI-18971 (antibody, V domains shown, full-length IgG from yeast; also called Antibody Number 319; Ab # 319) VH: EVQLVESGGGLVQRGGSLRLSCAASGFTFSGNAMSWVRQAPGKGLEWVASIGESATSAYYADSVKGRFTISRDDSKNTLYLQMNSLRPEDTAVYFCAKDRVGWFGEFDAFDFWGQGTMVTVSS VL: SYELTQPPSVSVAPGKTATISCGGNNIGGHKVHWYQQRPGQAPVLVIYYDNVRPSGIPERFSGSNSGNTATLTISRVEAGDEADFYCQVWDSRSEHVIFGGGTKVTVL | 0.039 | 0.114 | 0.168 | 0.157
13 | ADI-18974 (antibody, V domains shown, full-length IgG from yeast) VH: QVQLVQSGPEVKKPGASVRVSCEASGYPFSNYGITWVRQAPGQGLEWMGWISAYNGNRDYLQKFQGRLTMTIDTSTRTAHMELRRLTSDDTAVYWCARDTPATAAPLLDYWGQGTLVTVSS VL: DIVMTQSPLSLAVTLGQPASISCRSSQSLEFTDGNTYLNWFQQRPGQSPRRLIYKVSNRDSGVPDRFSGSGSGTGFTLKISRVEAEDVGVYYCMQGIFRPGTFGQGTKVEIK | 0.03 | 0.105 | 0.29 | 0.253
14 | ADI-18977 (antibody, V domains shown, full-length IgG from yeast) VH: QVQLVQSGTEVKKPGASVKISCKTSGYTFTNNVIQWVRQAPGQRLEWMGWISAGNGYTKYSDKFQDRVTITRDTSASTAYMEVSSLTSEDTAMYYCARQVSTSGWHATSHRFAPWGQGTLVTVSS VL: DIQMTQSPSSLSASVGDRVTITCQASQGISRYLNWYQQKPGKAPNLLIYDASNLETGVPSRFSGSGSGTHFTLTISSLQPEDIATYYCQQYDNLPLTFGGGTKVEIK | 0.108 | 0.117 | 0.966 | 0.786
15 | ADI-18890 (antibody, V domains shown, full-length IgG from yeast) VH: QVQLVQSGAEVKRPGSSVKVSCKASGGTFRGYHISWLRQAPGQGLEWLGGITHLFGTVSYAPKFQGRVTITADASTGTLYMVLNSLKPEDTAIYYCARDAYEVWTGSYLPPFDYWGQGTLVTVSS VL: ETTLTQSPGTLSLSPGERATLSCRASQTVTSNYLAWYQQKPGQAPRLLIYDALTRATGIPDRFSGSGSGTDFTLTISRLEPEDFALYYCQQYGSSFLTFGGGTKVDIK | 0.041 | 0.041 | 0.458 | 0.489
16 | ADI-18891 (antibody, V domains shown, full-length IgG from yeast; also called Antibody Number 246; Ab # 246) VH: QVQLQESGAEVKKPGSSVKVSCKASGGAFSSYAISWVRQAPGQGLEWLGGITHLFGTVSYAPKFQGRVTITADASTGTLYMVLNSLKPEDTAIYYCARDAYEVWTGSYLPPFDYWGQGTLVTVSS VL: EIVLTQSPGTLSLSPGERATLSCRASQTVTSNYLAWYQQKPGQAPRLLIYDALTRATGIPDRFSGSGSGTDFTLTISRLEPEDFALYYCQQYGSSFLTFGGGTKLEIK | 0.012 | 0.026 | 0.513 | 0.534
17 | ADI-18893 (antibody, V domains shown, full-length IgG from yeast; also called Antibody Number 248; Ab # 248) VH: EVQLLESGGGLVKPGGSLRLSCVASGFTFSSYNINWVRQAPGKGLEWVSSISGGSNYIDYADSVKGRFTISRDNAKNSLYLQMNNLRAEDTAVYYCARLGYGGNPELDYWGQGTLVTVSS VL: QSVLTQPPSVSGAPGQRVTISCTGSSSNIGAGYDVHWYQQRPGTAPKLLIYANNNRPSGVPDRFSGSKSGTSASLAITGLQAEDEADYYCQSYDLSLSSSRVFGGGTKLTVL | 0.123 | 0.182 | 0.278 | 0.245
